Where two headings read alike, the source gives them in different places.
Tests used:
human CLDN6 [1] = molecular target: T1, human CLDN6 (human, UniProt P56747 1-220); experiment: FACS on HEK293T-CLDN6 cells
T1 construct: whole, on cells; four-transmembrane protein; also called claudin-6; HEK293T-CLDN6
T1 sequence (looked up): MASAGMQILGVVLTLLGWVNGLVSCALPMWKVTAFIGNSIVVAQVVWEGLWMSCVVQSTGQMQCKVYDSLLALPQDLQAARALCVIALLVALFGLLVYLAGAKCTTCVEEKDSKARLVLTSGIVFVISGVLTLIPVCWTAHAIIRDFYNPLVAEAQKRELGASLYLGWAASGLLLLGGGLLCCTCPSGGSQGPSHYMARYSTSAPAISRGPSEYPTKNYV
Description: To detect a binding capacity of a chimeric or humanized antibody to CLDN6, a CLDN6-expressing cell line HEK293T-CLDN6 and a CLDN6-negative control cell line HEK293T were washed three times with PBS. 1×10⁵ test cells and 50 μL of an antibody solution to be tested were added to a 96-well plate, and incubated at 4° C. for 1 h. The cells were then washed three times with PBS. […] Finally, cells were washed three times with PBS, and signals were read using FACS.
An EC50 value (a concentration of an antibody that binds to half of binding sites at equilibrium) is calculated through nonlinear regression.

human CLDN9 [2] = molecular target: T2, human CLDN9 (human, UniProt O95484 1-217); experiment: FACS on 293T-CLDN9 cells, 10 µg/mL
T2 construct: whole, on cells; also called HEK293T-CLDN9
T2 sequence (looked up): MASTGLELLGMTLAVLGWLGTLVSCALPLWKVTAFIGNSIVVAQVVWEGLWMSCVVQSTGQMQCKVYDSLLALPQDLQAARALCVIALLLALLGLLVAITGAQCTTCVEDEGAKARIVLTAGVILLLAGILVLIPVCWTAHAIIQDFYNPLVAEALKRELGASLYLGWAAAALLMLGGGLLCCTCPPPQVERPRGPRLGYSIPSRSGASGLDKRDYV
Description: (§1) 50 μL of an antibody to be tested was added to a 96-well plate, then 1× 10⁵ cells were added to each well, and incubation was conducted at 4° C. for 1 h. Cells were washed three times with PBS. […] Finally, cells were washed three times with PBS, and signals were read using FACS. Binding capacities of the antibody to CLDN9, CLDN3, and CLDN4 were analyzed separately based on detection data.

human CLDN9 [3] = molecular target: T2, human CLDN9; experiment: FACS on 293T-CLDN9 cells, 10 µg/mL; remark: listed apart in the source
Description: as §1

human CLDN6 [4] = molecular target: T1, human CLDN6; experiment: FACS on 293T-CLDN6 cells, 10 µg/mL
human CLDN9 [5] = molecular target: T2, human CLDN9; experiment: FACS on 293T-CLDN9 cells, 10 µg/mL; remark: listed apart in the source
Description: as §1

human CLDN6 [6] = molecular target: T1, human CLDN6; experiment: ratio of FACS Geom.Mean on 293T-CLDN6 over 293T-CLDN9, 10 µg/mL
Description: as §1

human CLDN6 [7] = molecular target: T1, human CLDN6; experiment: FACS on HepG2 tumour cells, 5 µg/mL; target on the cells taken as CLDN6
Description: as §1, with “1×10⁵” for “1× 10⁵”, “A binding capacity” for “Binding capacities”, “each tumor cell was” for “CLDN9, CLDN3, and CLDN4 were”, “analyzed” for “analyzed separately”

- EC50 (human CLDN6 [1]): 0.213 µg/mL
- Geom.Mean (human CLDN9 [2]): 985
- Geom.Mean (human CLDN9 [3]): 3810
- Geom.Mean (human CLDN6 [4]): 23600
- Geom.Mean (human CLDN9 [5]): 1810
- CLDN6/CLDN9 ratio (human CLDN6 [6]): 45
- Geom.Mean (human CLDN6 [7]): 970
B1: IMAB027 (antibody, human IgG1, kappa, V domains shown)
VH: EVQLQQSGPELVKPGASMKISCKASGYSFTGYTMNWVKQSHGKNLEWIGLINPYNGGTIYNQKFKGKATLTVDKSSSTAYMELLSLTSEDSAVYYCARDYGFVLDYWGQGTTLTVSS
VL: IVLTQSPAIMSASPGEKVTITCSASSSVSYLHWFQQKPGTSPKLWVYSTSNLPSGVPARFGGSGSGTSYSLTISRMEAEDAATYYCQQRSIYPPWTFGGGTKLEIKR
notes: variable regions of mAb206-LCC on human IgG1 constant regions; also called benchmark antibody; control antibody

From patent publication US20260139049A1 (PEDIATRIC IMMUNITY AND HEALTHCARE GUANGZHOU BIOTECHNOLOGY, published 2026)
